Data set [1] concerns RpoN (sigma54) (Escherichia coli (CFT073?)), ORF:8ae15e91. As to the kind of experiment: EMSA. The conditions noted are these: 10 mM Tris pH 7.5, 1 mM EDTA, 1 mM DTT, 50 mM KCl, 50 mM MgCl2, 1 ug/ml BSA; 10 nM DNA, protein 0-240 nM; 30 min room temperature (ArcA, RpoN) …. Background: A gel shift assay detects complexes by their altered migration in electrophoresis.
The target of data set [2] is T1, ArcA (Escherichia coli (uropathogenic CFT073?)) (UniProt P0A9Q2).
T1 sequence: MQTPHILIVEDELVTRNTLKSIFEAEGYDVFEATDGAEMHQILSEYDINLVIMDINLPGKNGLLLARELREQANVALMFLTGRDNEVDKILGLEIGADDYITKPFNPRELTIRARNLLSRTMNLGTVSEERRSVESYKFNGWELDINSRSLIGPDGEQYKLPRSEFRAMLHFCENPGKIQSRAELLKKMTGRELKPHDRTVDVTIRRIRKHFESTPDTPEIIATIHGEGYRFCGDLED
As to the kind of experiment: EMSA. The settings on record: 10 mM Tris pH 7.5, 1 mM EDTA, 1 mM DTT, 50 mM KCl, 50 mM MgCl2, 1 ug/ml BSA; 10 nM DNA, protein 0-240 nM; 30 min room temperature (ArcA, RpoN) ….

Turning to “ATGTTAAGCATGATAACGCCTTTTAGGGGCAATTTAAAAGTTGGCACAGATTTCGCTTTATCTTTTTTACGGCGACACGGCCCATTTAATTGCAGATTTCGTTACCACGACGACAATGACCAATCCAGGAGAGTTAAAGTATGTCCGCTGAACACGTACTGACGATGCTGAACGAGCACGAAGTGAAGTTTGTTG (double strand) [glnA promoter probe]”, the binding entry in data set [1] was “binds”.
Regarding “GGCGCGTCTTATACTCCCACATAAGCCAGATTCAACAGCGAATACGTCTTCCCCAAATTGCCCACTTCCATACTTCCTCCTTACCAGAAATCTATCCTTAAGCTCCTTAATAACCATTTTCCTGCTAACTAAATTCATGGTTAAGGTTGCATAATGATATGCAACAAATGTATAACATTTTTCTTACCAAAAAATAAACAAAAGCGACCGACAAAAGCATTGGATTACGGCAGGAG (double strand) [kgtP promoter probe]”, the binding entry in data set [2] is on record as “binds”.
Take “ATCTGTGTGGTAAGAGAATCACCTTTTATTTACTGTGCGGAAAACCGCGCACAAAATAAAAAGAATAAATAATAAAATCATTAAATAACAAAGCGTTATTAAAAAATTAAAGATGGCATAGCTCCTGCAATAGCCAGGCAGGTTTTTTATTTTTCACAATGAGGTGAATATGTCATCAATATCCCATGGCGCACCACAAAAGCGTCGAATTATCCCTAATCCCGGCCTGTGGTT (double strand) [c5038 promoter probe]”: the binding result in data set [2] is reported as “no binding”; in data set [1], “binds”.
As to “TGCGCAATTGTACTTATTGCATTTTTCTCTTCGAGGAATTACCCAGTTTCATCATCCCATTTTATTTTGCGAGCGAGCGCACACTTGTGAATTATCTCAATAGCAGTGTGAAATAACATAATTGAGCAACTGAAAGGGAGTGCCCAATATTACGACATCATCCATCACCCGCGGCATTACCTGATTATGGAGTTCAATATGCAAGCCT (double strand) [xylA promoter probe]”, in data set [1], the binding result is given as “no binding”.

These data come from paper PMC5318444.
